Results published in PMC7926355, “Mutation of GGMP Repeat Segments of Plasmodium falciparum Hsp70-1 Compromises Chaperone Function and Hop Co-Chaperone Binding” (International Journal of Molecular Sciences, 2021).

How the values were obtained:
Test in all cases: SPR
Settings in all cases: both partners purified
[1] = molecular target: T1, Plasmodium falciparum Hsp70-1 (PfHsp70-1), wild type (Plasmodium falciparum 3D7, UniProt Q8IB24 1-677)
T1 construct: PfHsp70-1, cytosolic Hsp70 of Plasmodium falciparum 3D7, NCBI XP_001349336.1; called the full length PfHsp70-1 protein; pQE30 vector with N-terminal (His)6-tag; also called WT; wild type PfHsp70-1

PfHsp70-1_(G632) = PfHsp70-1_(G632) (Plasmodium falciparum 3D7, UniProt Q8IB24 1-677, 632GGMPGGMP639 to 632AALAAALA639)
PfHsp70-1_(G648) = PfHsp70-1_(G648) (Plasmodium falciparum 3D7, UniProt Q8IB24 1-677, 648[…]657 to 648[…]657)
PfHsp70-1_(G632-664) = PfHsp70-1_(G632-664) (Plasmodium falciparum 3D7, UniProt Q8IB24 1-677, 632[…]664 to 632[…]664)
PfHsp70-1∆G = PfHsp70-1∆G (Plasmodium falciparum 3D7, UniProt Q8IB24 1-677, deletion of residues 632-664)

Measured: binding result

B1: Plasmodium falciparum Hsp70-Hsp90 organising protein (PfHop) (natural protein, UniProt Q8ILC1 1-564, looked up)
chain: MVNKEEAQRLKELGNKCFQEGKYEEAVKYFSDAITNDPLDHVLYSNLSGAFASLGRFYEALESANKCISIKKDWPKGYIRKGCAEHGLRQLSNAEKTYLEGLKIDPNNKSLQDALSKVRNENMLENAQLIAHLNNIIENDPQLKSYKEENSNYPHELLNTIKSINSNPMNIRIILSTCHPKISEGVEKFFGFKFTGEGNDAEERQRQQREEEERRKKKEEEERKKKEEEEMKKQNRTPEQIQGDEHKLKGNEFYKQKKFDEALKEYEEAIQINPNDIMYHYNKAAVHIEMKNYDKAVETCLYAIENRYNFKAEFIQVAKLYNRLAISYINMKKYDLAIEAYRKSLVEDNNRATRNALKELERRKEKEEKEAYIDPDKAEEHKNKGNEYFKNNDFPNAKKEYDEAIRRNPNDAKLYSNRAAALTKLIEYPSALEDVMKAIELDPTFVKAYSRKGNLHFFMKDYYKALQAYNKGLELDPNNKECLEGYQRCAFKIDEMSKSEKVDEEQFKKSMADPEIQQIISDPQFQIILQKLNENPNSISEYIKDPKIFNGLQKLIAAGILKVR
notes: PfHop, Hsp70-Hsp90 organising protein of Plasmodium falciparum
binds: [1] | PfHsp70-1_(G632) | PfHsp70-1_(G648) | PfHsp70-1_(G632-664) | PfHsp70-1∆G
